According to the DeepSol protein solubility set:

Assay: soluble on expression in E. coli; label from the status in PepcDB or PDB records

Sequence	soluble on expression in E. coli
MGSDKIHHHHHHMNPELLQKYIAGNATEAEKQRVTEWIQENPENMREYMAQRKLHDMALWRTEPVAEENSRERKHFSLRGVCMEAAKIAAVLAIVLLGTHYWTGKHQVPEDKTWQSIYVPAGQRAELMLADGTKVWLNSRSTLTFPGSFKGNIRNVKLDGEGYFAVTKNVEQPFIVETNKCNVKVLGTEFNVMAYAADSVWETSLLEGAVEILVPGSNNSGMRLEPNMMASLKGNRLVKGRIKEVDYFLWREGLLCFNDISVRDMIEKLKLYYGVDIVVNNTRILKNRYTGKFRTKDGVEHVLKVLRLNNKFTYTKDDETNVITIN	not soluble
SIKDVHRCFVIACIPGKKPYTLALSDFISATAACFKSGIPLKTLKESLENMKETYFRPLKVEEFELLRTWLTLVYKTLKEVLFPLTENKRGICDTDDSIYDEFVKSIVTAIREGYSMEKIRLEQVVTNTKTQPRTEFESALLSQSTRIVVQTVQIAKEFSSEQ	soluble
GSLTTISSILSLKREKPDNLAIILQIDFTKLKEEDSLIVVYNSLKALTIKFARLQFCFVDRNNYVLDYGSVLHKIDSLDSISNLKSKSSSTQFSPIWLKNTLYPENIHEHLGIVAVSNSNMEAKKSILFQDYRCFTSFGRRRPNELKIKVGYLNVDYSDKIDELVEASSWTFVLETLCYSFGLSFDEHDDDDEEDN	soluble
AHHHHHHGSDIKPGKITVQANPNMPEEIANLFRKQHYELVGRHSGVKLCHWLKKSLTEGRFCYKQKFYGIHSHRCLQMTPVLAWCTHNCIFCWRPMETFLGTEVPEPWDDPAFIVEESIKAQRKLLVGYKGNPKVDKKKFEEAWEPKHAAISLSGEPMLYPYMGDLVEEFHKRGFTTFIVTNGTVPESLREMIKDDKLPTQLYVSLTAPDIESYNKVNIPMIPDGWEKILEFLELMRDIPTRTVVRLTLVKGENMHNPEGYARLIMKARPMFVEAKAYMFVGFSRNRLTINNMPSHEDIREFAEALVKYLPGYHIEDEYEPSRVVLIMRDDVDPSGTGLEGRFIKH	not soluble
SYLYTLYSDVRTEVAKMERVAWLEVVGKFETEKLTPNSLYEVVFVVKLIDSAKGWDFRVNFKLVLPTGETKERRENVNLLERNKWVEIPAGEFMISPEHLSGKIEFSMLEVKSDQWKSGLIVKGVAIRPKN	soluble
MSQEALKAPVVVLGAGLASVSFVAELRQAGYQGLITVVGDEAERPYDRPPLSKDFMAHGDAEKIRLDCKRAPEVEWLLGVTAQSFDPQAHTVALSDGRTLPYGTLVLATGAAPRALPTLQGATMPVHTLRTLEDARRIQAGLRPQSRLLIVGGGVIGLELAATARTAGVHVSLVETQPRLMSRAAPATLADFVARYHAAQGVDLRFERSVTGSVDGVVLLDDGTRIAADMVVVGIGVLANDALARAAGLACDDGIFVDAYGRTTCPDVYALGDVTRQRNPLSGRFERIETWSNAQNQGIAVARHLVDPTAPGYAELPWYWSDQGALRIQVAGLASGDEEIVRGEVSLDAPKFTLIELQKGRIVGATCVNNARDFAPLRRLLAVGAKPDRAALADPATDLRKLAAAVAA	soluble
RHRCIGLTVETKPDWFFEREIDEALAYGTTKVELGVQNIDDRILAINNRGHTVADIARSTQLARDAGLKIVYHIMPGMYGSSFEKDLKSFDLMINDERFKPDMLKIYPTLVTQGTGLYNLWKNGKYRPYTTAETVDLIVEFMRRMPDWIRIQRIQR	not soluble
MKTNREQEIYVERSFKPNNSTIQNLMDIERFILPHTSTSGVARLKMRVISWVGLQFYNY	soluble
MTGRLQNKVIVITGASSGIGEQVAMQVAEQGATPVLMARTEEKLKALADKIKETYNTPCYYYVLDVSEETEVQSVFSKVLQEVGRIDILVNNAGFGIFKTFEDASMDEVKDMFQVNVFGLVACTKAVLPYMVKRNEGHIINIASLAGKIATPKSSAYAATKHAVLGFTNSLRMELSSTNVFVTAINPGPIDTNFFEIADQSGTYVKNMGRYMLKPTYVAEQIVKSMQTKKREVNLPKWMGIGPKLYALFPGLFERVAGKSLSKK	not soluble
MNRSNQDITQPTAIIAVVGVGAEQGIGAAVCRRFAQEKFKVYVAGRTLNKVEKVAAAIHRQGGQAVAYVLDAENEQQLQTLFDHLNDQPEALAAVIHNVGGNIPSIFLQSSLKFFSQMWRSTFLSSVLVAQRSLSIFQKQQQGTLIFTGASASLRGKPFFAAFSMGKSALRSYALNLAELYRSQNIHVAHVMVDGMVDGDRVNKALWGLGRLARLTRGTGGLNIDAIAENYWMLYQQNVDLWTHELDLRPYQEKF	not soluble
MGSDKIHHHHHHMNLRQLKYFLATAELGQVSRAASELSISQSSVTTAIRELEQSMGTTLFNRTAHGMDLTPTGRDLMSAARDVMEKVQIAQDIGQNHSDVTGTINIAATYTVCGYFLPYHLDRLSHRFPNLTINISELNRESIEEGLISNRFDVAVILTSNTSNPELATQTLMRSHRRLWVPQNHPLAGREFASFEDVAAQDYIMLTVDEAANTSMKYWGPTGLMPRVRMRTSSTEAVRSMVANGLGVTILSDMVYRPWSLEGRRISTVVMDREIPSMDVGLAWRRNQEMPNAARHFVDYFRNAYLSPQMAHTAWRG	not soluble
MNSLFVDNTVFITRLKAGHIGRLVQALFEEWHGFEPWSSVDKIHAYYGRCLKDDELPLAFAAVDDSGILLGSAAVKRHDMESFPRYEYWLGDVFVLPEYRGKGIGRRLVAHCIGAARSLGIKFLYLYTPDVQIFYESFGWVVVGRHFHNGEWVTVMRLDVDKV	not soluble
MTTASTSQVRQNYDQDSEAAINRQINLELYASYVYLSMSYYFDRDDVALKNFAKYFLHQSHEERCHAEKLMKLQNQRGGRIFLQDIQKPDRDDWESGLNAMEAALQLEKNVNQSLLELHKLATDKNDPHLSDFIETHYLNCQVCAIKCLGDHVTNLRKMGAPESGLAEYLFDKHTLGDSDNES	soluble
MSVEKTCRYLSLFLVASLTGCGFHLRGSETSDGAGQVLFLEKAGSTRVGSRLPDAIRLTGAQLTRNMVDAKGVIRILKETDERRTMSLNLGGRGNLFDLYTRVRYEVTTPQGEIIIPPQEVEVKREYFNNQLSPIGQGEEESLLRSEMERELAETLVRRVLIEMSRNPGGKSLEHHHHHH	soluble
MVYVKSLLRRADNFMYIVKKSSEARAALLVDLVNEEDYKELADKENIDITAVLTTHHHYDHCGGNEGFRRQFPNVMILGGDSRIPAMDRHVKHGDMAEFAGLQIKCLSTPCHTSGHICYHITNPAADSTSPGVVFTGDTLFIAGCGRFFEGTAPQMDVALNEILKNLPVETQIFPGHEYTVANLKFACHVEPGNEKAAQKLEWAQRQIEQGGFTVPSTVAEEKATNPFMRVRESEEIQKSIGTCDAVVGMAKLREMKNKF	not soluble
ISNKHFEQAIERVVAGMEKKTQVLQKEEKKTVAYHEAGHAIAGWFLQHADPLLKVSIIPRGKGLGYAQYLPKEQYLYSKDQLLDRMCMTLGGRVAEEIFFGRITTGAQDDLQKVTQMAYSQVVKFGMSEKVGPLSFETPAPGEMAFDKPYSEATAQLIDQEQFADLPEILDSGNLPICRKFSIPAICRFAGNFQFRQFANLPNCRKFSIPTICQFAGNFNFQKIADLPEKIVRDLVMNALRRTRDLLLEKRSDIERVALRLLEKEILNREDMIEL	not soluble
MKLKSLDFPTGYFYFDNAAINSDKVEVIAVGYRNTDKTIKIFIEDVIHFRVVDESYFIDTFMDLISEDADRALLHENGGQSFFELLDECYAEWILKESYFPLNREFFKYYIFMFEQTFIEIIGSSATYSIIEG	not soluble
GAADHVKGDGKLTSKKISVADYNEIKVDGVIDFNYEQSDDPSTVEVTVDQNLHPYVNIEVKDRVLTIAFKGAKVDHFTKFIVKTNSKWLAAAKVSGNANFMVNSPLTGDETVIKANANSLVQLKETVTVGKLDLNVSGSANMVVNHLEADKIECDIDGSGSITIKKGNAKEGDYSIVSSGDIHAFGLAVPQLSCKVTGNGLAEVHATDNLKANVVGKGNIRYKGPTAVQQRIIGKGTVEEVKE	soluble
MTYEAGCGLIKALEDPDNRVRQRAVKTLGKRGNPDVLEDLMEALKDSRQPVQEAASEALRKIIAASDSVPVLVKALDATDRNVRKAAIEALWKAGTPEAIPPLLRELDDADWYLRSRAADALADIASPEAALGLIKVMDIHDSPVKKIIVNALGKIGTVEAVEGLVKALEDLEHHHHHH	not soluble
MIATYNTNVGDVLMLITANDKGEKVNFERKGKVARVFIEETGATVAWNIFEAKSLLANLSGNGQVVLSSDDIETLNKELGKSGFSDVLVHDAQPKFVVAEIVEMEDHPDSDHLHICKVNVGFADPVQIVCGAPNAALGLKTVAALPGAMMPNGSLIFPGALRGVQSYGMLCSARELELPNAPEVRGIIELSSDLSAGKAFDSETMWQALEHHHHHH	soluble
MVVSKMNKDAQMRAAINQKLIETGERERLKELLRAKLIECGWKDQLKAHCKEVIKEKGLEHVTVDDLVAEITPKGRALVPDSVKKELLQRIRTFLAQHASL	soluble
MGHHHHHHSHMIQPRLLADAIVLFTSSQEEVTLAVTPLNFCLKSSNEESMDLSNAVHSEMFVGSDEFDFFQIGMDTEITFCFKELKGILTFSEATHAPISIYFDFPGKPLALSIDDMLVEANFILATLADEQSRASSPQSLCLSQKRKRSDLIEKKAGKNVTGQALECISKKAAPRRLYPKETLTNISALENCGSPAMKRVDGDVSEVSESSVSNTEEVPGSLCLRKFSCMFFGAVSSDQQEHFNHPFDSLARASGSEEDMNNVCCRKEFNGSDAEYFCII	not soluble
LGSGTTEDVSDLPVEEQLRRLQEERTCKVCMDKEVSIVFIPCGHLVVCKDCAPSLRKCPICRSTIKGTVRTFLS	soluble
MVTHSKFPAAGMSRPLDTSLRLKTFSSKSEYQLVVNAVRKLQESGFYWSAVTGGEANLLLSAEPAGTFLIRDSSDQRHFFTLSVKTQSGTKNLRIQCEGGSFSLQSDPRSTQPVPRFDCVLKLVHHYMPPPGTPSFSLPPTEPSSEVPEQPPAQALPGSTPKRAYYIYSGGEKIPLVLSRPLSSNVATLQHLCRKTVNGHLDSYEKVTQLPGPIREFLDQYDAPL	soluble
SSKEAFDELSVLSAIYCEQGEFEVLEESPEKGVVFRVHTLIDNNEKTPLDIIFHISPEYPNTPPDISISSNHLSRRQCHDLRRSLLDTAQSLPAEPMVHGLMLWLQENFSDLIKTSSCHSAEVRPETTEETWTALLHLDHMRSKAKYIKLIEKWTLELRLTGRLFTGKLILILLQGTKENIKQYIHLLKSVKVDVDSSGKRCKEKMMSVLCEIPKPEDKIMMTTFEVKDILSLDDLRREFDLIGLNELYHQFVSSLT	soluble
MLGASRWRRTSAFSGIWRIPMSSNNSSRKVVTVDEQAFERTEDAGVDEDGFKVVDDKPEFRATVQQEKQAKVDSNHPDGIVQDFSHLPLAQEEKIRAREAELDHISAQAELGTQDGRAKRTRKVVTERRQRKRAERTPDRTDPRERLSRMELAKVNQEADRMAQRLRTGHSRAAVSRALAKRVAKGQDITKAVFDTMDALKAAPGAICPIEDVPDVQTDEVSIEGEVVQLWDASSRKIAQVGLVADDTGKIKFTSWRKSEPAFVQEGDTVRMRAVKKNWYEGRCSLAVTYDSMIVFPERDRRWWEELEHHHHHH	not soluble
MPLVSVVMPVYNSAATLGAAVRSVLTQTHGDLELLVTDDQSSDGSMDLLREFAAQDERVLPRSSPERGGAGRARNLAIERARGDYVAFLDSDDMWLPEKTEKQLAFAAEGTAPLTFTSYFKMDADHDGESTDWVPNGRVIRAREHVDYRAMLVQDHIGALTAMYDRNVLGTRLMPEMRKRQDYALWLSIMRDGADARGLAEPLAVYRAHQAGSLSSNKLSLVEYNWALYREHENLSVPRATRALAGAVWQSLRNSRILEHHHHHH	not soluble
